Each block holds one substance with its values, some of them ahead of it. Where no end group is shown, it is not given here.
Tests used:
[1] = background description of the marketed drug; cited from earlier work
[2] = target: T1, HLA-B*39:01 and β2-microglobulin (Homo sapiens, UniProt P01889, A182T/A93T/A95T/C349S/D138N/D201E/E176V/E187T/E204Q/K202T/Q94N/R155S/R180L/S121R/Y140F/Y91C); assay: Refolding of HLA complexes with synthetic peptides, G200 superdex chromatography (OD280); assay type: binding; settings: for peptide binding and proper refolding of HLA-B*39:01 (peak in chromatogram): FIG. 2A-2D, FIG. 3; for binding to HLA-B*39:01 (results of the studies taken together): overall conclusion of Example 2, Tables 6 and 7 and FIGS. 2-4
T1 construct: made in house; host or cells: E. coli
Protocol: (§1) Refolding, characterization and purification of HLA complexes was performed as described (PMID: 12220628). Briefly, HLA-B*39:01 and β2-microglobulin were expressed in E. coli. Inclusion bodies were isolated, denatured in 8 M Urea and mixed with synthetic peptides derived from infliximab (Genscript) at a final concentration of 0.2 mg per ml protein, 6 M Urea, 20 mM Tris pH 8.0, 1 mM GSH, 10 mM GSSH for 24 hours, then dialyzed against 10 mM Tris pH 8.0 for 3 days. Samples concentrated to reduce the volume 10 fold, then loaded on a G200 superdex column calibrated with standards (http://www.bio-rad.com/webroot/web/pdf/1sr/literature/MSLIT-102E.pdf) in 10 mM Tris, 150 mM NaCl, at 0.75 ml per minute. OD280 was recorded for chromatographic analysis.
(§2) Results of the study are provided in FIGS. 2-4 and in Tables 6 and 7. In Tables 6 and 7, the IC50 (nM) for each peptide binding to HLA-B*39:01, HLA-B*05:01, HLA-B*35:01, or HLA-B*57:01 are shown in nM. […] In each of FIG. 2A-2D, the dotted line arrow points to the peak (or lack of a peak, for FIG. 2D) indicating peptide binding and proper refolding. […] The dotted line arrow points to the peak (or lack of a peak) indicating peptide binding and proper refolding. […] FIGS. 5A and 5B show an exemplary crystal structure of infliximab.

other HLAs = assay: Peptide binding to other HLAs (overall conclusion of Example 2); set-up: species or system human
Protocol: A study was conducted to identify interactions between peptides present on the infliximab antibody and HLA-B*39:01. Peptides corresponding to heavy and light chain sequences of infliximab (chain H and L in PDB code 4G3Y) were predicted to bind class I HLA molecules based on the Stabilized matrix method (SMM) implemented in Immune Epitope Database and Analysis Resource (IEDB). Peptides predicted to bind with estimated Kd values less than 0.5 μM were considered candidate binders for: HLA-B*39:01, HLA-B*15:01, HLA-B*35:01, and HLA-B*57:01.
as §1, §2

[3] = HLA analysis of infliximab-DILI cases vs. matched controls and reference populations; assay type: in vivo, human; settings: for OR vs. Ref 2 / OR vs. Ref 1 / OR vs. Control / OR: DILI after infliximab; for OR vs. Control: 25 Caucasian cases vs 60 controls; for OR: cases vs controls
Protocol: Samples from 25 Caucasians, 3 Africans, and 3 outliers subjects that had been treated with infliximab and had experienced DILI were obtained. These are referred to as “cases” here. These samples were compared to a set of 60 matched Caucasian and 6 matched African controls. […] The controls were matched for age, sex, ethnicity, and BMI where possible. Statistical analyses were performed to identify from these cases HLA alleles that are risk factors for the development of DILI following infliximab exposure. Significant alleles were determined using Fisher's Exact Test (FET) (p<0.05).
As a secondary comparison, the HLA profiles of the 25 Caucasian cases were compared to reference populations available at www.allelefrequencies.net. For calculating population presence rates, reference list entries were found by searching for “Caucasoid” ethnic origin subjects of gold-standard studies involving ≥100 subjects for alleles of interest on allelefrequencies.net. Sample sizes for the references represent the reported number of subjects directly typed for a given locus (i.e. USA NMDP European Caucasian reports 1,242,890 subjects typed for HLA-B and DRB1, but only 395,676 subjects typed for HLA-C; see Table 3).
In order to test for significant differences between the 31 Infliximab-DILI cases and the reference populations using Fisher's Exact Test (FET), counts of individuals carrying at least one copy of the allele in question were calculated one of two ways. If the population presence rate was available, the number of individuals was estimated by rounding the product of the population presence rate and the sample size for that HLA locus in that study. If no population presence rate was available, this number was estimated using the allele frequency rate and assuming Hardy-Weinberg equilibrium (HWE). That is, if the allele frequency is p, the number of individuals with the allele in question were calculated as [p^2+2*p*(1−p)]*Nsamples, where p^2+2*p*(1−p) represents the percentage of carriers if HWE is assumed, and N samples is the reference sample size for that locus.
The data sets individually analyzed were: Caucasian typed and/or Caucasian imputed; African typed and/or African imputed; and All Ethnicities typed and/or All Ethnicities imputed. “Typed only” means that only subjects with directly typed HLA alleles were considered in the indicated analysis. “Imputed only” means that only the imputed alleles (i.e., the subject's HLA profile was determined using known proxies for HLA subtypes in their genetic sequence) for each subject were used in the indicated analysis. “Imputed+Typed” means that all subjects were considered; here, directly typed HLA alleles were used if available, otherwise, imputed alleles were used.

Substance: ENTYVIO: integrin receptor antagonist for ulcerative colitis or Crohn's disease
- hepatic adverse reactions reported in patients [1]: reports of elevations of transaminase and/or bilirubin

Substance: TYSABRI: integrin receptor antagonist indicated for multiple sclerosis and Crohn's disease
- hepatic adverse reactions reported in patients [1]: Significant liver injury, including liver failure requiring transplant, has occurred in patients

Substance: Guselkumab: IL-23 blocker
- hepatic adverse reactions reported in patients [1]: Elevated liver enzymes have been reported

Substance: Infliximab: mouse-human chimeric monoclonal antibody that binds to human tumor necrosis factor (TNF)
- hepatic adverse reactions reported in patients [1]: known to cause hepatotoxicity, and even severe hepatic reactions that can be fatal or necessitate a liver transplant
- OR vs. Ref 2 ([3]; B*39:01, 25 Caucasian cases vs England Northwest): 13.72
- OR vs. Ref 1 ([3]; B*39:01, 25 Caucasian cases vs USA NMDP European Caucasian): 8.33
- OR vs. Ref 2 ([3]; C*12:03, 25 Caucasian cases vs UK Pop 3): 4.56
- OR vs. Ref 1 ([3]; C*12:03, 25 Caucasian cases vs USA NMDP European Caucasian): 3.02
- OR vs. Control ([3]; DQA1*3:03): 18.82
- OR vs. Ref 2 ([3]; DQA1*3:03, 25 Caucasian cases vs Netherlands pop 2): 0.87
- OR vs. Ref 1 ([3]; DQA1*3:03, 25 Caucasian cases vs USA Caucasian Bethesda): 0.92
- OR vs. Control ([3]; DQB1*02:01): 4.93
- OR vs. Ref 2 ([3]; DQB1*02:01, 25 Caucasian cases vs USA Philadelphia Caucasian): 3.57
- OR vs. Ref 1 ([3]; DQB1*02:01, 25 Caucasian cases vs USA San Antonio Caucasian): 2.54
- OR vs. Control ([3]; DRB1*03:01): 4.24
- OR vs. Ref 1 ([3]; DRB1*03:01, 25 Caucasian cases vs USA NMDP European Caucasian): 2.25
- OR vs. Ref 2 ([3]; DRB1*03:01, 25 Caucasian cases vs USA Philadelphia Caucasian): 3.57
- OR ([3]; HLA-A*02:01, African imputed + typed): 91.00
- OR ([3]; HLA-B*39:01, Caucasian imputed + typed): 25.33
- OR ([3]; HLA-C*07:01, All ethnicities imputed + typed): 2.77
- OR ([3]; HLA-C*12:03, Caucasian imputed + typed): 5.85
- OR ([3]; HLA-DPB1*04:02, African imputed + typed): 25.67
- OR ([3]; HLA-DQA1*03:01, All ethnicities imputed + typed): 0.28
- OR ([3]; HLA-DQA1*03:03, All ethnicities imputed + typed): 16.33
- OR ([3]; HLA-DQB1*02:01, All ethnicities imputed + typed): 5.21
- OR ([3]; HLA-DRB*03:01, All ethnicities imputed + typed): 4.50
- risk of DILI following infliximab administration in subjects with HLA-B*39:01 ([3]; in words): associated with a higher risk of DILI

Substance: golimumab: TNF blocker
- hepatic adverse reactions reported in patients [1]: reports of severe hepatic reactions including acute liver failure

Substance: Certolizumab: anti-TNF antibody used for the treatment of autoimmune diseases
- hepatic adverse reactions reported in patients [1]: Elevated liver enzymes and hepatitis have been reported

Substance: ACTEMRA: interleukin-6 (IL-6) receptor antagonist
- hepatic adverse reactions reported in patients [1]: Serious cases of hepatic injury have been observed

Substance: GAZYVA: CD20-directed cytolytic antibody
- hepatic adverse reactions reported in patients [1]: Hepatic enzyme elevations have occurred in CLL patients

Substance: ZINBRYTA: CD25 (IL-2 receptor)-specific antibody used to treat multiple sclerosis
- hepatic adverse reactions reported in patients [1]: can cause severe liver injury, including autoimmune hepatitis and liver failure

Further lines, with some results ahead:

- peptide binding and proper refolding of HLA-B*39:01 (peak in chromatogram) [2]: binding
- binding to other HLAs (results of the studies taken together) (other HLAs): not to other HLAs
Substance: TKGPSVFPL [SEQ ID NO: 2, TKGPSVFPL]
- binding to HLA-B*39:01 (results of the studies taken together) [2]: bind to HLA-B*39:01 at significant levels

- binding to other HLAs (results of the studies taken together) (other HLAs): not to other HLAs
Substance: VQWKVDNAL [SEQ ID NO: 8, VQWKVDNAL]
- binding to HLA-B*39:01 (results of the studies taken together) [2]: bind to HLA-B*39:01 at significant levels

- binding to other HLAs (results of the studies taken together) (other HLAs): not to other HLAs
Substance: YSLSSTLTL [SEQ ID NO: 5, YSLSSTLTL]
- binding to HLA-B*39:01 (results of the studies taken together) [2]: bind to HLA-B*39:01 at significant levels

- binding to other HLAs (results of the studies taken together) (other HLAs): not to other HLAs
Substance: TQSPAILSV [SEQ ID NO: 6, TQSPAILSV]
- binding to HLA-B*39:01 (results of the studies taken together) [2]: bind to HLA-B*39:01 at significant levels

- peptide binding and proper refolding of HLA-B*39:01 (peak in chromatogram) [2]: lack of binding
- binding to HLA-B*39:01 (results of the studies taken together) [2]: does not bind
Substance: ACEVTHQGL [SEQ ID NO: 12]

- peptide binding and proper refolding of HLA-B*39:01 (peak in chromatogram) [2]: binding
- binding to other HLAs (results of the studies taken together) (other HLAs): not to other HLAs
Substance: THQGLSSPV [SEQ ID NO: 1, THQGLSSPV]
- binding to HLA-B*39:01 (results of the studies taken together) [2]: bind to HLA-B*39:01 at significant levels

- binding to other HLAs (results of the studies taken together) (other HLAs): not to other HLAs
Substance: LQSSGLYSL [SEQ ID NO: 10, LQSSGLYSL]
- binding to HLA-B*39:01 (results of the studies taken together) [2]: bind to HLA-B*39:01 at significant levels

- binding to other HLAs (results of the studies taken together) (other HLAs): not to other HLAs
Substance: CQQSHSWPF [SEQ ID NO: 9, CQQSHSWPF]
- binding to HLA-B*39:01 (results of the studies taken together) [2]: bind to HLA-B*39:01 at significant levels

- binding to other HLAs (results of the studies taken together) (other HLAs): not to other HLAs
Substance: STYSLSSTL [SEQ ID NO: 7, infliximab light chain peptide]
- binding to HLA-B*39:01 (results of the studies taken together) [2]: bind to HLA-B*39:01 at significant levels

- binding to other HLAs (results of the studies taken together) (other HLAs): not to other HLAs
Substance: STSGGTAAL [SEQ ID NO: 11, infliximab heavy chain peptide]
- binding to HLA-B*39:01 (results of the studies taken together) [2]: bind to HLA-B*39:01 at significant levels

Reference: patent publication US20220062372A1, “METHODS FOR TREATING DISEASE AND REDUCING DRUG-INDUCED LIVER INJURY IN PATIENT POPULATIONS” (Ten Peaks LLC, priority 2020, published 2022)
